Assay [1] concerns the target biotinylated CRH (human and mouse). Nature of the assay: Octet in-tandem competition on captured CRH; row = 1st mAb (control hIgG1); competitor (2nd mAb) PR303394. A general note: Biolayer interferometry detects binding as a change in optical thickness at a sensor tip.
For assay [2] the target is unchanged. The assay is described as follows: Octet in-tandem competition on captured CRH; row = 1st mAb (control hIgG1); competitor (2nd mAb) PR302341-34.
For assay [3] the target is unchanged. Nature of the assay: Octet in-tandem competition on captured CRH; row = 1st mAb (control hIgG1); competitor (2nd mAb) PR005660.
The target is the same in assay [4]. The assay is described as follows: Octet in-tandem competition on captured CRH; row = 1st mAb (control hIgG1); competitor (2nd mAb) PR302309-8.
The target is the same in assay [5]. The assay is described as follows: Octet in-tandem competition on captured CRH; row = 1st mAb (control hIgG1); competitor (2nd mAb) PR006669.
For assay [6] the target is unchanged. Nature of the assay: Octet in-tandem competition on captured CRH; row = 1st mAb (control hIgG1); competitor (2nd mAb) PR301777.
For assay [7] the target is unchanged. Nature of the assay: Octet in-tandem competition on captured CRH; row = 1st mAb (control hIgG1); competitor (2nd mAb) PR302334.

Sequence of biotinylated CRH (human and mouse) (P01143 145-185): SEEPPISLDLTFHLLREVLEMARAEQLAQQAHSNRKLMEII

Regarding “unrelated human IgG1 (negative control) (antibody)”, the % Inhibition (usually how much of the control response was suppressed) in assay [1] was 10%; in assay [2] it was 12%; in assay [3] it was 12%; in assay [4] it was 15%; in assay [5], 9%; in assay [6] it was 9%. The same substance came in with a % Inhibition in assay [7] of 8%.

(Values after patent US20250197490A1, “ANTI-CORTICOTROPIN-RELEASING HORMONE ANTIBODIES AND USE IN CONGENITAL ADRENAL HYPERPLASIA” (HBM ALPHA THERAPEUTICS, INC., priority 2021, published 2025).)
